Among the test systems are NCCCC(=O)O; NCCCCc1nnn[nH]1; NCCCc1nnn[nH]1; NCCc1nnn[nH]1.
What all share (assay): purified protein, by the assay type
Holding throughout (settings): other: substrate of GABA-AT, 1 h incubation, 25° C., pH 8.5

Procedure for NCCCCc1nnn[nH]1: (§1) After incubation (48 h for the preliminary test, 1 h for determination of kinetic constants), the mixture was quenched with trichloroacetic acid. The resulting [^14C]glutamate was isolated by cation-exchange chromatography, and the DPM (disintegration per minute) value was measured. Controls consisted of the entire incubation mixture with substrates omitted. The substrate kinetic constants kcat and Km were determined by the method of Hanes and Woolf, as referenced above.
Procedure for NCCCc1nnn[nH]1: as §1
Procedure for NCCc1nnn[nH]1: as §1

With GABA-AT (Sus scrofa), the Km was 2400 µM in the data set with NCCCC(=O)O, 8000 µM in the data set with NCCCCc1nnn[nH]1, 2400 µM with NCCCc1nnn[nH]1 and 2300 µM in the data set on NCCc1nnn[nH]1. The kcat was found to be 0.817 s⁻¹ in the data set with NCCCC(=O)O, 0.693 s⁻¹ in the data set with NCCCCc1nnn[nH]1, 0.477 s⁻¹ in the data set with NCCCc1nnn[nH]1 and 0.265 s⁻¹ with NCCc1nnn[nH]1. Further, the catalytic efficiency (kcat/Km) in the data set on NCCCC(=O)O was 340 M⁻¹ s⁻¹; with NCCCCc1nnn[nH]1 it was 86.7 M⁻¹ s⁻¹; with NCCCc1nnn[nH]1, 195 M⁻¹ s⁻¹; in the data set with NCCc1nnn[nH]1, 115 M⁻¹ s⁻¹.

In general, Km refers to the concentration of substrate that gives half-maximal velocity. Broadly, the kcat is the number of substrate molecules converted per active site and unit of time at saturation. As a reminder, the kcat/Km is the second-order rate constant that governs catalysis at low substrate concentration.

These data come from patent US20070105924A1, “Vigabatrin bioisoteres and related methods of use” (priority 2005, published 2007).
